In publication PMC6151538 (2017):
Values belong to the binder of their own block, whether it stands above or below them.

Legend:
fetuin = target: T1, fetuin (Bos taurus, UniProt P12763); assay: solid-phase assay, Scatchard analysis
T1 chain: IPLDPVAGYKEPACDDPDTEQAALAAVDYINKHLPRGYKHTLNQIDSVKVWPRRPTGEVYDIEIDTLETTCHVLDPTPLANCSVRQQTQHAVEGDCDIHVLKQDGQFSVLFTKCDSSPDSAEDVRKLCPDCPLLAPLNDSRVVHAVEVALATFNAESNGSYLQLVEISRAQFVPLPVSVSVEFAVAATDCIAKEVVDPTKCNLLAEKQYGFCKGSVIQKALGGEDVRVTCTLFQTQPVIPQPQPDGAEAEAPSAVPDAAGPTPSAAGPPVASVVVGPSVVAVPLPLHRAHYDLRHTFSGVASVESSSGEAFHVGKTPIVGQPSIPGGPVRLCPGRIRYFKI

asialofetuin = target: T2, asialofetuin (Bos taurus, UniProt P12763); assay: solid-phase assay, Scatchard analysis
T2 chain: T1 chain

Kd (fetuin): 93 nM
B1: Gal-8 (NN) N-terminal CRD tandem homodimer (NN, no linker) (protein)
chain: MMLSLNNLQNIIYNPVIPFVGTIPDQLDPGTLIVIRGHVPSDADRFQVDLQNGSSMKPRADVAFHFNPRFKRAGCIVCNTLINEKWGREEITYDTPFKREKSFEIVIMVLKDKFQVAVNGKHTLLYGHRIGPEKIDTLGIYGKVNIHSIGFSFSS
modifications: engineered linker-free tandem of two Gal-8N CRDs, biotinylated; fetuin with sialylated N-glycans

Kd (asialofetuin): 148 nM
B2: Gal-8 (NN) N-terminal CRD tandem homodimer (NN, no linker) (protein)
chain: B1 chain
modifications: engineered linker-free tandem of two Gal-8N CRDs, biotinylated; fetuin chemically desialylated (N-glycans)
